Target: T1, Loop L1 of MmpL4 (residues 58-199) (Mycobacterium tuberculosis, UniProt P9WJV3 58-199)
T1 construct: MmpL4 of Mycobacterium tuberculosis, predicted loop L1 between TM1 and TM2, residues 58-199; also called L1 loop of MmpL4; periplasmic loop of MmpL4
T1 sequence: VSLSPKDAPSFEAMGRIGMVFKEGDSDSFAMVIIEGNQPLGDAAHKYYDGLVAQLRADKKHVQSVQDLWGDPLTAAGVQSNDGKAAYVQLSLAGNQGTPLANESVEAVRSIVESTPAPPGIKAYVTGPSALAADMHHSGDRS
Assay: pull-down
Details: both partners purified

B1: C-terminal soluble domain of MmpS4 (residues 52-140) (domain or fragment)
chain: HLTYEIFGPPGTVADISYFDVNSEPQRVDGAVLPWSLHITTNDAAVMGNIVAQGNSDSIGCRITVDGKVRAERVSNEVNAYTYCLVKSA
notes: MmpS4 (rv0451c) of Mycobacterium tuberculosis, residues 52-140: N-terminally truncated, lacks the predicted transmembrane helix; also called MmpS4_(52-140); water-soluble domain of MmpS4
Question: Does B1 bind?
Answer: binds

From PMC3561183, “Discovery of a Siderophore Export System Essential for Virulence of Mycobacterium tuberculosis” (PLoS Pathogens, 2013)
